“And” between values parts separate entries of the source, which are not always exact repeats. Equal entries are not always repeated. Marks after values point to notes of the source that are not given here.
Legend:
[1] = tested on: LPS-induced zebrafish inflammation model; assay: anti-inflammatory effect on LPS-induced inflammation; conditions: 5 hours; for numbers of neutrophils (mean ± SE): model control 17.8
Experimental: The zebrafish inflammation model was established by treatment of transgenic neutrophil fluorescent zebrafish through LPS injection.
The zebrafishes were randomly selected and put in the six-well plate, 30 per well. […] The normal control group and model control group were set at the same time. […] Image analysis was performed with Nikon NIS-Elements D3.10 advanced image processing software, the number of neutrophils (N) in zebrafish was calculated, and quantitatively analyzed. The formula of the rate of inflammation resolution was as follows:

[2] = tested on: copper sulfate induced zebrafish inflammation model; assay: anti-inflammatory effect on copper sulfate-induced inflammation; assay type: in vivo; set-up: numbers of neutrophils (mean ± SE): dose or concentration left out as unconfirmed; conditions: 5 hours; for Inflammation resolution rate (%): copper sulfate
Experimental: The specific method was described by d'Alencon et al., BMCBiology.
The images were analyzed by Nikon NIS-ElementsD3.10 advanced image processing software.

[3] = tested on: tail amputation injury zebrafish inflammation; assay: anti-inflammatory effect on inflammation of tail amputation injury; conditions: 5 hours
Experimental: Model making: The model of zebrafish inflammation was established by mechanical amputation of tail fins of transgenic neutrophil fluorescent zebrafish.
The transgenic neutrophil fluorescent zebrafish were randomly selected and put in the six-well plate after mechanical amputation of tail fins, 30 per well. […] The normal control group and model control group were set at the same time. […] Image analysis was performed with Nikon NIS-Elements D3.10 advanced image processing software, the number of neutrophils (N) in zebrafish was calculated, and quantitatively analyzed. The formula of the rate of inflammation resolution was as follows:

[4] = tested on: TNBS-induced colonitis zebrafish model; assay: pathological analysis of intestinal tract tissue; assay type: in vivo; conditions: 15 μg/mL, 48 hours
From the text: The fixed zebrafish was observed under the microscope for the colonic tissue and photographed for histopathological analysis, as described in the experimental results.

[5] = tested on: TNBS-induced colonitis zebrafish model; assay: therapeutic efficiency on TNBS-induced colonitis (intestinal lumen area); assay type: in vivo; conditions: 48 hours, model control 197660, normal control 130711
Experimental: (Please refer to A. Jemal, R. Siegel, J. Xu, et al. Ward. Clinicians, 2010, 277-300, and Intestinal Upregulation of Melanin-Concentrating Hormone in TNBS-Induced Enterocolitis in Adult Zebrafish. Plos One, 2013, 8(12):1524-1528).
Image analysis was performed by image analysis software, the area of zebrafish intestinal lumen was calculated, and quantitative analysis was carried out, and the statistical result was expressed with X±SE:
The therapeutic efficiency of the positive control group was calculated by replacing the treatment group in the above formula with the positive control group;

[6] = 1 h
Experimental: (§1) The enzyme activity of SOD was determined by pyrogallol autoxidation method.

[7] = stability of SOD at different pH; assay type: physicochemical; conditions: pH 12
Experimental: as §1

zebrafish [8] = assay: maximum non-lethal concentration (MNLC), 48 h treatment; assay type: in vivo; conditions: for Death rate (%) / Death (tail): 48 hours; for Death (tail): 30 zebrafish
Experimental: 30 zebrafishes were treated in each experiment group;
During the experiment course, count dead zebrafish every day and remove dead zebrafish;

[9] = tested on: TNBS-induced colonitis zebrafish model; assay: inflammation resolution of TNBS-induced colonitis (intestinal neutrophils); conditions: intestinal tract, 48 hours, model control 9.4, normal control 1.6
Experimental: Transgenic neutrophil fluorescent zebrafish of 3 days after fertilization was used to establish a zebrafish colonitis model after incubation for 48 h in water for fish containing a final concentration of 4.5 μM TNBS.
Model control group: TNBS-induced colonitis zebrafish model (model 2);
Positive control group: prednisone was added to water for fish at a final concentration of 15 μg/mL;
30 transgenic neutrophil fluorescent zebrafishes were treated in each experiment group for 48 hours;

zebrafish [10] = assay: maximum non-lethal concentration (MNLC), 5 h treatment; assay type: in vivo; conditions: 2000 μg/mL for 5 hours
Experimental: 30 zebrafishes were treated in each experiment group. During the course of the experiment, the dead zebrafishes were counted and removed. After the M-type SOD treatment, the number of dead zebrafishes in each experiment group was counted, and MNLC was determined. […] Therefore, the concentration of 2000 μg/mL was selected as the maximum concentration in the evaluation of anti-inflammatory effect of SOD.

Experimental for pepsin: Preparation of simulated gastric fluid: in accordance with the standard of the Pharmacopoeia 2010, namely: take dilute hydrochloric acid 16.4 ml (dilute hydrochloric acid: diluted hydrochloric acid 234 ml with water up to 1000 ml. The HCl contained in the solution should be 9.5% to 10.5%), add about 800 ml of water and pepsin 10 g (Sinopharm, 20141209) and shake well, then add water up to 1000 ml.
as §1

COc1ccc2c(c1)c(CC(=O)O)c(C)n2C(=O)c1ccc(Cl)cc1 [indometacin, reference compound]
Inflammation resolution rate (%) ([1]; 60 μM): 72% | Inflammation resolution rate (%) ([2]; 60 μM): 88*** % | Inflammation resolution rate (%) ([3]; 60 μM): 62%

C[C@]12C=CC(=O)C=C1CC[C@@H]1[C@@H]2C(=O)C[C@@]2(C)[C@H]1CC[C@]2(O)C(=O)CO [prednisone, reference compound]
intestinal histopathology [4]: intestinal mucosal histology was improved significantly

B1: M-type SOD: mutant high temperature resistant superoxide dismutase, amino acid sequence SEQ ID NO. 4; position 202 mutated from lysine to asparagine versus W-type SOD (protein)
chain: MPYPFKLPDLGYPYEALEPHIDAKTMEIHHQKHHGAYVTNLNAALEKYPYLHGVEVEVLLRHLAALPQDIQTAVRNNGGGHLNHSLFWRLLTPGGAKEPVGELKKAIDEQFGGFQALKEKLTQAAMGRFGSGWAWLVKDPFGKLHVLSTPNQDNPVMEGFTPIVGIDVWEHAYYLKYQNRRADYLQAIWNVLNWDVAEEFFNKA
modifications: amino acid sequence of M-type SOD
notes: position 202 mutated from lysine to asparagine versus W-type SOD
intestinal lumen area (mean ± SE) ([5]; 15 μg/mL in water for fish): 153560 ± 6080 | intestinal lumen area (mean ± SE) ([5]; 50 μg/mL in water for fish): 142595 ± 3167 | intestinal lumen area (mean ± SE) ([5]; 150 μg/mL in water for fish): 141259 ± 5359 | Inflammation resolution rate (%) ([1]; 15 μg/mL): 0% | numbers of neutrophils (mean ± SE) ([1]; 15 μg/mL): 17.7 and 17.7 ± 1.4 | Inflammation resolution rate (%) ([1]; 50 μg/mL): 16% | numbers of neutrophils (mean ± SE) ([1]; 50 μg/mL): 14.9 and 14.9 ± 1.0 | Inflammation resolution rate (%) ([1]; 150 μg/mL): 31% | Inflammation resolution rate (%) ([1]; 450 μg/mL): 34% | Inflammation resolution rate (%) ([1]; 1350 μg/mL): 58% | Inflammation resolution rate (%) ([1]; 2000 μg/mL): 65% | numbers of neutrophils (mean ± SE) ([2]; model control 15.5): 14.9 and 14.9 ± 0.6 | Inflammation resolution rate (%) ([2]; 15 μg/mL): 4% | Inflammation resolution rate (%) ([2]; 50 μg/mL): 24% | Inflammation resolution rate (%) ([2]; 150 μg/mL): 47% | Inflammation resolution rate (%) ([2]; 450 μg/mL): 77% | Inflammation resolution rate (%) ([2]; 1350 μg/mL): 91% | Inflammation resolution rate (%) ([2]; 2000 μg/mL): 92% | thermal stability (remaining enzyme activity) [6]: maintained extremely high stability within a wider temperature range | activity kept [7]: 97% | Inflammation resolution rate (%) ([3]; 150 μg/mL): 29% | Inflammation resolution rate (%) ([3]; 450 μg/mL): 51% | Inflammation resolution rate (%) ([3]; 1350 μg/mL): 58% | Inflammation resolution rate (%) ([3]; 2000 μg/mL): 59% | Death rate (%) (zebrafish [8]; 150 μg/mL): 0% | Death (tail) (zebrafish [8]; 150 μg/mL): 0 tail | Death rate (%) (zebrafish [8]; 200 μg/mL): 20% | Death (tail) (zebrafish [8]; 200 μg/mL): 6 tail | Death rate (%) (zebrafish [8]; 330 μg/mL): 100% | Death (tail) (zebrafish [8]; 330 μg/mL): 30 tail | Death rate (%) (zebrafish [8]; 1000 μg/mL): 100% | Death (tail) (zebrafish [8]; 1000 μg/mL): 30 tail | Death rate (%) (zebrafish [8]; 3000 μg/mL): 100% | Death (tail) (zebrafish [8]; 3000 μg/mL): 30 tail | MNLC (zebrafish [8]; zebrafish, treatment for 48 hours): 150 µg/mL | intestinal histopathology ([4]; 50 μg/mL and 150 μg/mL): the inflammation of intestinal mucosa was significantly improved | number of neutrophils (mean ± SE) ([9]; 15 μg/mL): 6.8 ± 0.88 | number of neutrophils (mean ± SE) ([9]; 50 μg/mL): 5.6 ± 0.45 | number of neutrophils (mean ± SE) ([9]; 150 μg/mL): 3.7 ± 0.53 | resistance against pepsin degradation (pepsin): significantly better than ordinary SOD | toxic effects on zebrafish (zebrafish [10]): no toxic effects

Source: patent publication US10391048B2, “Recombinant high-stability superoxide dismutase and application thereof” (Hangzhou Redox Pharmatech Co., Ltd., priority 2016, dated 2019)
